Patent US5688671A, “Mutant aspartokinase gene” (Ajinomoto Co., Inc., priority 1993, dated 1997)
Substitutions are numbered along the chain they refer to.

B1: Pro: mutant aspartokinase 279 Ala→Pro, plasmid p399AKAP (p399AKAPB) (protein, UniProt P26512 1-421, looked up, variant A279P)
Aspartokinase: MALVVQKYGGSSLESAERIRNVAERIVATKKAGNDVVVVCSAMGDTTDELLELAAAVNPVPPAREMDMLLTAGERISNALVAMAIESLGAEAQSFTGSQAGVLTTERHGNARIVDVTPGRVREALDEGKICIVAGFQGVNKETRDVTTLGRGGSDTTAVALAAALNADVCEIYSDVDGVYTADPRIVPNAQKLEKLSFEEMLELAAVGSKILVLRSVEYARAFNVPLRVRSSYSNDPGTLIAGSMEDIPVEEAVLTGVATDKSEAKVTVLGISDKPGEPAKVFRALADAEINIDMVLQNVSSVEDGTTDITFTCPRSDGRRAMEILKKLQVQGNWTNVLYDDQVGKVSLVGAGMKSHPGVTAEFMEALRDVNVNIELISTSEIRISVLIREDDLDAAARALHEQFQLGGEDEAVVYAGTGR
B2: Cys: mutant aspartokinase 279 Ala→Cys, plasmid p399AKAC (p399AKACB) (protein, UniProt P26512 1-421, looked up, variant A279C)
Aspartokinase: B1 Aspartokinase with P279C
B3: Ser: mutant aspartokinase 279 Ala→Ser, plasmid p399AKAS (p399AKASB) (protein, UniProt P26512 1-421, looked up, variant A279S)
Aspartokinase: B1 Aspartokinase with P279S
B4: Thr: mutant aspartokinase 279 Ala→Thr from AJ3463, plasmid p399AK9 (p399AK9B); SEQ ID NO: 4 and 6 (protein)
chain: MEEAVLTGVATDKSEAKVTVLGISDKPGETAKVFRALADAEINIDMVLQNVSSVEDGTTDITFTCPRADGRRAMEILKKLQVQGNWTNVLYDDQVGKVSLVGAGMKSHPGVTAEFMEALRDVNVNIELISTSEIRISVLIREDDLDAAARALHEQFQLGGEDEAVVYAGTGR
B5: Wild type: wild type aspartokinase of Corynebacterium glutamicum ATCC 13869, plasmid p399AKY (p399AKYB); SEQ ID NO: 3 and 5 (protein)
chain: B4 chain with T30A

These molecules were tested on AK (assay: AK enzyme activity and inhibition by lysine/threonine in cell-free extracts of AK-deficient Escherichia coli Gif106M1 transformants). Details: E. coli Gif106M1 cell-free extracts.
Format: biochemical, Corynebacterium glutamicum
Excerpt: Bacteriol. 112, 84-92 (1972), Theze, J. et al., J. […] It is known that most of genes of bacteria belonging to the genus Corynebacterium are expressed in Escherichia coli. In addition, the AK gene was ligated at a position downstream from lac promoter on pHSG399. Thus it was postulated that the gene could be expressed in Escherichia coli. […] Thus it was confirmed that AK from the bacteria belonging to the genus Corynebacterium was expressed and operated in cells of Escherichia coli. Subsequently, cell-free extracts were prepared from bacterial cells, and the enzyme activity of AK was measured. Upon measurement of the enzyme activity of AK, various concentrations of lysine and threonine were added to enzyme reaction solutions to investigate the degree of inhibition (FIG. 2). […] (Ki value: 0.4 mM→5.0 mM). […] Cell-free extracts were prepared, and enzymes were analyzed.

In the case of B1, the “concerted inhibition by lysine+threonine” value is reported as “desensitized”.
In the case of B2, the “concerted inhibition by lysine+threonine” value is reported as “enhanced”.
With B3 the “concerted inhibition by lysine+threonine” value was “enhanced”.

In the case of B1, the “degree of activation by threonine” value is reported as “not less than 120%”.

With B1 the “inhibition by lysine alone as compared with the wild type” value was “mitigated”.
In the case of B2, the “inhibition by lysine alone as compared with the wild type” value is reported as “equivalent to that in the wild type”.
In the case of B3, the “inhibition by lysine alone as compared with the wild type” value is reported as “equivalent to that in the wild type”.
In the case of B4, the “inhibition by lysine alone as compared with the wild type” value is reported as “little improvement”.

B4 was tested, and the “inhibition by threonine desensitized” value was 100%.

Same assay, conditions: E. coli Gif106M1 cell-free extracts; Table 4

In order of rising Specific activity:
1. B1  2.8 mU/mg protein
2. B3  8.2 mU/mg protein
3. B4  12.9 mU/mg protein
4. B5  15.3 mU/mg protein
5. B2  15.4 mU/mg protein

Same assay, conditions: fraction of wild type specific activity

In the case of B1, the “specific activity relative to that of the wild type” value is reported as “about 1/5”.

Same assay, conditions: lysine 5 mM+threonine 5 mM; activity without addition = 100%; E. coli Gif106M1 extracts

In order of falling “5 mM Lys + Thr (degree of desensitization of inhibition, activity-holding ratio)” value:
1. B1  103.8%
2. B4  50.4%
3. B3  18.4%
4. B2  17.0%
5. B5  9.2%

Same assay, conditions: lysine 5 mM; activity without addition = 100%; E. coli Gif106M1 extracts

In order of falling “5 mM Lys (degree of desensitization of inhibition, activity-holding ratio)” value:
1. B1  76.9%
2. B2  56.3%
3. B3  52.6%
4. B4  47.0%
5. B5  42.3%

Same assay, conditions: threonine 5 mM; activity without addition = 100%; E. coli Gif106M1 extracts

In order of falling “5 mM Thr (degree of desensitization of inhibition, activity-holding ratio)” value:
1. B3  131.6%
2. B1  126.9%
3. B2  108.1%
4. B4  103.5%
5. B5  62.3%

What follows are molecules tested on AK (assay: Thermal stability of AK, treatment at 55° C. for 1.5 hour). Details: not given.
Format: biochemical, Corynebacterium glutamicum
Protocol: The activity-holding ratio after a treatment at 55° C. for 90 minutes is indicated by %.
Thermal stability was investigated as an index of stability of the enzyme structure constructed by the introduction of mutation. The treatment condition was set at 55° C. for 1.5 hour in which the activity of the wild type AK was about 80%.

B5 was tested, and the “activity after thermal treatment (activity-holding ratio)” value was “about 80%”.

Same assay, conditions: FIG. 6

For B2, the “thermal stability compared with the wild type” value was “higher stability than that of the wild type”.
In the case of B4, the “thermal stability compared with the wild type” value is reported as “higher stability than that of the wild type”.

The molecules below were run on aspartokinase (assay: Aspartokinase (AK) activity of cell-disrupted solutions of Corynebacterium glutamicum strains, with and without L-lysine/L-threonine). Details: 2 mM lysine + threonine; plasmids introduced into AJ12036.
Format: biochemical, Corynebacterium glutamicum (Brevibacterium lactofermentum)
Excerpt: When a wild type strain is used as a donor for the DNA fragment containing the AK gene, a DNA fragment containing a wild type AK gene can be obtained. The DNA fragment containing the gene for AK in which synergistic feedback inhibition by L-lysine and L-threonine is substantially desensitized can be obtained by using a mutant strain in which synergistic feedback inhibition on the AK activity by L-lysine and L-threonine is substantially desensitized. The mutant strain can be obtained, for example, from a group of cells subjected to an ordinary mutation treatment, ultraviolet light irradiation, or a treatment with a mutating agent such as N-methyl-N'-nitro-N-nitrosoguanidine (NTG). The AK activity can be measured by using a method described in Miyajima, R. et al., The Journal of Biochemistry (1968), 63(2), 139-148.
Strains were prepared by introducing the wild type AK plasmid p399AKYB and the mutant AK plasmid p399AK9B respectively into AJ12036 strain (FERM P-7559) as a wild type strain of Corynebacterium glutamicum (Brevibacterium lactofermentum). The genes were introduced into Corynebacterium by means of an electric pulse method. The aspartokinase activity was measured for Corynebacterium glutamicum (Brevibacterium lactofermentum) AJ12036 strain as a host, AJ12690 strain harboring the wild type AK plasmid, and AJ12691 (FERM P12918) strain harboring the mutant AK plasmid. The activity was measured in accordance with an ordinary method (see Miyajima, R. et al., The Journal of Biochemistry (1968) 63(2), 139-148). […]
Strains were prepared by introducing 8 kinds of the plasmids shown in Table 3 into AJ12036 strain (FERM P-7559) as a wild type strain of Corynebacterium glutamicum (Brevibacterium lactofermentum) in the same manner as Example 3. The AK activity was measured for each of the strains. […] The desensitization degree of inhibition by lysine and/or threonine was similar to those in Example 6.

In order of falling “2 mM Lys + Thr (desensitization degree of inhibition)” value:
1. B1  85.2%
2. B4  78.3%
3. B2  60.6%
4. B3  37.0%
5. B5  6.2%

Same assay, conditions: lysine 5 mM; plasmids introduced into AJ12036

In order of rising “5 mM Lys (desensitization degree of inhibition)” value:
1. B5  52.7%
2. B3  55.0%
3. B4  58.7%
4. B2  66.5%
5. B1  77.5%

Same assay, conditions: lysine alone, threonine alone and concerted inhibition; plasmids in AJ12036

With B1 the “degree of desensitization of inhibition, ranking” value was “highest degree of desensitization of inhibition”.

Same assay, conditions: plasmids introduced into AJ12036; Table 5

In order of rising Specific activity:
1. B1  125.0 mU/mg protein
2. B2  267.0 mU/mg protein
3. B5  316.4 mU/mg protein
4. B4  374.4 mU/mg protein
5. B3  406.8 mU/mg protein

Same assay, conditions: threonine 5 mM; plasmids introduced into AJ12036

In order of falling “5 mM Thr (desensitization degree of inhibition)” value:
1. B2  135.7%
2. B1  123.2%
3. B3  114.4%
4. B4  109.1%
5. B5  86.8%

The molecules below were run on Corynebacterium glutamicum (Brevibacterium lactofermentum) AJ12036 (assay: L-lysine productivity evaluated by cultivation in production medium). Details: plasmids introduced into AJ12036; cultivation as in Example 3.
Format: cell-based
Protocol: The lysine productivity was evaluated by cultivation for the wild type strain AJ12036, the wild type AK plasmid-harboring strain AJ12690, and the mutant AK plasmid-harboring strain AJ12691 (FERM P-12918). The evaluation by cultivation was performed by inoculating the strains to a production medium (containing glucose 100 g, (NH4)2 SO4 55 g, KH2 PO4 1 g, MgSO4.7H2 O 1 g, soybean protein acid hydrolysate "Mamenou" (product of Ajinomoto Co., Ltd., trade name) 50 ml, FeSO4.7H2 O 10 mg, MnSO4.4H2 O 10 mg, nicotinic acid amide 5 mg, and CaCO3 50 g in 1 l of pure water, pH 8.0), and cultivating them with reciprocatory shaking at 31.5° C. for 72 hours. […] The plasmid-holding ratio upon completion of the cultivation was measured by using an index of chloramphenicol resistance as a drug resistance marker of the plasmid.
The lysine productivity was further evaluated by cultivation for the 9 kinds of these strains by using a method similar to that in Example 3.

In order of falling Lys--HCl:
1. B1  25.11 g/L
2. B4  24.25 g/L
3. B2  13.41 g/L
4. B3  5.72 g/L
5. B5  0.00 g/L
